Publication PMC9482650, “Quantitative fragmentomics allow affinity mapping of interactomes” (Nature Communications, 2022)

T1: LIN7A, O14910
T1 sequence (O14910 103-200, limits assumed, looked up): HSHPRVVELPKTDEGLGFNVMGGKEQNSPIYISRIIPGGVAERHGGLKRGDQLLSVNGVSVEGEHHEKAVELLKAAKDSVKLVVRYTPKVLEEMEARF

T2: DFNB31_2, Q9P202
T2 sequence (Q9P202 274-371, limits assumed, looked up): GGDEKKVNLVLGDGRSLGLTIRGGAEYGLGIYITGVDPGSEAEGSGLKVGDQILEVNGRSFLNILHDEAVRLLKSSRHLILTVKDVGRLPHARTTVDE

T3: HTRA4, P83105
T3 sequence (P83105 378-476, limits assumed, looked up): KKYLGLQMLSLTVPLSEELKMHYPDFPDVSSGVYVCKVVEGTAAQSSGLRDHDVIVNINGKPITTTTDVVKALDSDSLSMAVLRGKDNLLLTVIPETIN

T4: NHERF3_4, Q5T2W1
T4 sequence (Q5T2W1 373-468, limits assumed, looked up): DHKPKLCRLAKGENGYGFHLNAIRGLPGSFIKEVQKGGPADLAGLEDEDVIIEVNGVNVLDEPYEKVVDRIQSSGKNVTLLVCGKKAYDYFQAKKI

T5: GRIP1_7, Q9Y3R0
T5 sequence (Q9Y3R0 999-1096, limits assumed, looked up): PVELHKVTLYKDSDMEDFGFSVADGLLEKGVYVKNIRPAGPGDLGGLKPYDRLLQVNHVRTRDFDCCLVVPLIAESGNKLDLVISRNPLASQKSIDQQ

T6: TX1BP3, O14907
T6 sequence (O14907 10-122, limits assumed, looked up): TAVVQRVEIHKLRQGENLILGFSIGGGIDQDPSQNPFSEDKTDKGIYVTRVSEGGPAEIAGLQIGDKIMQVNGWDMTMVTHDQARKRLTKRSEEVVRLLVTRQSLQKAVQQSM

T7: PCLO, Q9Y6V0
T7 sequence (Q9Y6V0 4491-4600, limits assumed, looked up): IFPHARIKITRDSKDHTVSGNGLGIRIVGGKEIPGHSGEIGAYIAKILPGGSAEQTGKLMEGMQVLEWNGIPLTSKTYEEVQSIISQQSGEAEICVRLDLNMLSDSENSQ

T8: MPDZ_10, O75970
T8 sequence (O75970 1624-1722, limits assumed, looked up): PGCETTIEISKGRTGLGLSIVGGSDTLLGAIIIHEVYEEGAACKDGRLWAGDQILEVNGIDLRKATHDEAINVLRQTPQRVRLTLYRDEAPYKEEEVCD

T9: LNX2_2, Q8N448
T9 sequence (Q8N448 334-432, limits assumed, looked up): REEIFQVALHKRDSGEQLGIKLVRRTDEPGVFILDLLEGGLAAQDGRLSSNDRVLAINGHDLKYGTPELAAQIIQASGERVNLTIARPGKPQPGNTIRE

T10: MPP2, Q14168
T10 sequence (Q14168 180-250, limits assumed, looked up): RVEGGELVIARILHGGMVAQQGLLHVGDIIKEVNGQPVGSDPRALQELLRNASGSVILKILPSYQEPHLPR

T11: RADIL, Q96JH8
T11 sequence (Q96JH8 971-1071, limits assumed, looked up): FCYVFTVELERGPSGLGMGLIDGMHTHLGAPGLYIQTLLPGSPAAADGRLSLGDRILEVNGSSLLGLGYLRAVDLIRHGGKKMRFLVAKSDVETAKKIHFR

T12: APBA2_2, Q99767
T12 sequence (Q99767 654-744, limits assumed, looked up): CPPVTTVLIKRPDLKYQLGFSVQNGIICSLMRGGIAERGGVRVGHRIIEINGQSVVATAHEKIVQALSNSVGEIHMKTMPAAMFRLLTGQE


How the values were obtained:
Assay in all cases: holdup assay
Parameters in all cases: key: below the threshold = too weak to quantify, mostly under pKd 3.1 to 4
Details in all cases: plain residues with an end cap or a label only (N-terminal biotin on a linker: ado-ado)
FRMPD2_3, Q68DX3 = target: FRMPD2_3, Q68DX3
Inadl_10, Q8NI35 = target: Inadl_10, Q8NI35
FRMPD2_2, Q68DX3 = target: FRMPD2_2, Q68DX3
TJP2_1, Q9UDY2 = target: TJP2_1, Q9UDY2
LIN7A, O14910 = target: T1, LIN7A, O14910
MAGI1_1, Q96QZ7 = target: MAGI1_1, Q96QZ7
MAGI3_2, Q5TCQ9 = target: MAGI3_2, Q5TCQ9
DFNB31_2, Q9P202 = target: T2, DFNB31_2, Q9P202
ARHGEF12, Q9NZN5-2 = target: ARHGEF12, Q9NZN5-2
HTRA4, P83105 = target: T3, HTRA4, P83105
NHERF3_4, Q5T2W1 = target: T4, NHERF3_4, Q5T2W1
Inadl_8, Q8NI35 = target: Inadl_8, Q8NI35
IL16_3, Q14005 = target: IL16_3, Q14005
GRIP1_7, Q9Y3R0 = target: T5, GRIP1_7, Q9Y3R0
TX1BP3, O14907 = target: T6, TX1BP3, O14907
PCLO, Q9Y6V0 = target: T7, PCLO, Q9Y6V0
Inadl_5, Q8NI35 = target: Inadl_5, Q8NI35
MAGI1_2, Q96QZ7 = target: MAGI1_2, Q96QZ7
LNX1_3, Q8TBB1 = target: LNX1_3, Q8TBB1
MPDZ_10, O75970 = target: T8, MPDZ_10, O75970
LNX2_2, Q8N448 = target: T9, LNX2_2, Q8N448
MPP2, Q14168 = target: T10, MPP2, Q14168
RADIL, Q96JH8 = target: T11, RADIL, Q96JH8
APBA2_2, Q99767 = target: T12, APBA2_2, Q99767
TJP1_2, Q07157 = target: TJP1_2, Q07157
Inadl_9, Q8NI35 = target: Inadl_9, Q8NI35
Sequence of Inadl_9, Q8NI35 (Q8NI35 1530-1615): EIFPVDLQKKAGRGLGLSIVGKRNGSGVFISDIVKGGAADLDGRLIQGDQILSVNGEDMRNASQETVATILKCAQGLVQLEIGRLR

Sequence of MAGI1_2, Q96QZ7 (Q96QZ7 456-580): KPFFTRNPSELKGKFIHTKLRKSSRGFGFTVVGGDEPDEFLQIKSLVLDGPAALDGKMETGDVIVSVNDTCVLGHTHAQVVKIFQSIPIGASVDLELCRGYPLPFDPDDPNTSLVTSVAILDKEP
Sequence of Inadl_5, Q8NI35 (Q8NI35 673-780): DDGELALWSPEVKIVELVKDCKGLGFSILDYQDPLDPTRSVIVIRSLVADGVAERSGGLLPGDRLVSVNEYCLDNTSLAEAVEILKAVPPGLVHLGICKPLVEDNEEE
Sequence of MAGI3_2, Q5TCQ9 (Q5TCQ9 398-503): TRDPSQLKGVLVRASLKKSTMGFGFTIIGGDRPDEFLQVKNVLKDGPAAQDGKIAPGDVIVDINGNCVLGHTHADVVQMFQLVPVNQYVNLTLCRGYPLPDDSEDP
Sequence of ARHGEF12, Q9NZN5-2 (Q9NZN5 other isoform, or with tags, fused parts or gaps): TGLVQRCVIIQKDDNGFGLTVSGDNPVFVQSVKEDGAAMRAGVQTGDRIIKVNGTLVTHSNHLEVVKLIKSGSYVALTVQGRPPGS
Sequence of FRMPD2_2, Q68DX3 (Q68DX3 944-1038): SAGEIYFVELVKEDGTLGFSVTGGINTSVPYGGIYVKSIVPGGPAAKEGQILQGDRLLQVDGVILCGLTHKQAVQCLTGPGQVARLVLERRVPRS
Sequence of Inadl_10, Q8NI35 (Q8NI35 1673-1763): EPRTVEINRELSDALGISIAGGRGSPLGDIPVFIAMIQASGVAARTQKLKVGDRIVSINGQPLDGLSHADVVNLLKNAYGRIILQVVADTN
Sequence of MAGI1_1, Q96QZ7 (Q96QZ7 1-106): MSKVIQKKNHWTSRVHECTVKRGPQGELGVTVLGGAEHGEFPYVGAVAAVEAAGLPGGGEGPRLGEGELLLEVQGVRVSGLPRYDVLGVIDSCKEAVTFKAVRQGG
Sequence of TJP1_2, Q07157 (Q07157 181-274): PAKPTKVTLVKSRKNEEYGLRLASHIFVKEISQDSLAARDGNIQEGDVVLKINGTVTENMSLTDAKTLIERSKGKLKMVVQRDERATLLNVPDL
Sequence of LNX1_3, Q8TBB1 (Q8TBB1 500-596): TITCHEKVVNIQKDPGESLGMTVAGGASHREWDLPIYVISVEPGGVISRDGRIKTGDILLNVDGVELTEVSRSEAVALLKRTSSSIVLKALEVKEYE
Sequence of Inadl_8, Q8NI35 (Q8NI35 1425-1530): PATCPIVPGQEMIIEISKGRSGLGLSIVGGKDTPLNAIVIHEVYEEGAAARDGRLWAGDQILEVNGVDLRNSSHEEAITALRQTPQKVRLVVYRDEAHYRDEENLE
Sequence of IL16_3, Q14005 (Q14005 1107-1207): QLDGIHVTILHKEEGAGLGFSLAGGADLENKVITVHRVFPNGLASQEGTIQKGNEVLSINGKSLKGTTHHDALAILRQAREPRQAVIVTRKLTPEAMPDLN
Sequence of FRMPD2_3, Q68DX3 (Q68DX3 1073-1166): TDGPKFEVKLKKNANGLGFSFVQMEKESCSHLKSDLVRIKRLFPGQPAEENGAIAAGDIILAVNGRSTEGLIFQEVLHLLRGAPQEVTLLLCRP
Sequence of TJP2_1, Q9UDY2 (Q9UDY2 24-128): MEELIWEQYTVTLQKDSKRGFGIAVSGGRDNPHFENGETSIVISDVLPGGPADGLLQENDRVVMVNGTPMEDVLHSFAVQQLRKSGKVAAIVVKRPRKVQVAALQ

pKd (FRMPD2_3, Q68DX3) | pKd (Inadl_10, Q8NI35) | pKd (FRMPD2_2, Q68DX3) | pKd (TJP2_1, Q9UDY2) | pKd (LIN7A, O14910) | pKd (MAGI1_1, Q96QZ7) | pKd (MAGI3_2, Q5TCQ9) | pKd (DFNB31_2, Q9P202) | pKd (ARHGEF12, Q9NZN5-2) | pKd (HTRA4, P83105) | pKd (NHERF3_4, Q5T2W1) | pKd (Inadl_8, Q8NI35) | pKd (IL16_3, Q14005) | pKd (GRIP1_7, Q9Y3R0) | pKd (TX1BP3, O14907) | pKd (PCLO, Q9Y6V0) | pKd (Inadl_5, Q8NI35) | pKd (MAGI1_2, Q96QZ7) | pKd (LNX1_3, Q8TBB1) | pKd (MPDZ_10, O75970) | Binder | further results
below the threshold | below the threshold | below the threshold | below the threshold | below the threshold | below the threshold | below the threshold | below the threshold | below the threshold | below the threshold | below the threshold | below the threshold | below the threshold | below the threshold | below the threshold | below the threshold | below the threshold | below the threshold | below the threshold | below the threshold | SAGADSETHC [SLCO1B1, Q9Y6L6] | pKd (LNX2_2, Q8N448): below the threshold; pKd (MPP2, Q14168): below the threshold; pKd (RADIL, Q96JH8): below the threshold; pKd (APBA2_2, Q99767): below the threshold; pKd (TJP1_2, Q07157): below the threshold; pKd (Inadl_9, Q8NI35): below the threshold
below the threshold | below the threshold | below the threshold | 3.82 | below the threshold | below the threshold | 4.47 | below the threshold | 4.84 | below the threshold | 4.11 | below the threshold | below the threshold | below the threshold | below the threshold | below the threshold | below the threshold | 4.7 | below the threshold | below the threshold | WAKEKQHTRL [SLC17A1, Q14916] | pKd (LNX2_2, Q8N448): below the threshold; pKd (MPP2, Q14168): below the threshold; pKd (RADIL, Q96JH8): below the threshold; pKd (APBA2_2, Q99767): below the threshold; pKd (TJP1_2, Q07157): below the threshold; pKd (Inadl_9, Q8NI35): below the threshold

Further lines, the binder ahead of its results:

Binder | pKd (FRMPD2_3, Q68DX3) | pKd (Inadl_10, Q8NI35) | pKd (FRMPD2_2, Q68DX3) | pKd (TJP2_1, Q9UDY2) | pKd (LIN7A, O14910) | pKd (MAGI1_1, Q96QZ7) | pKd (MAGI3_2, Q5TCQ9) | pKd (DFNB31_2, Q9P202) | pKd (ARHGEF12, Q9NZN5-2) | pKd (HTRA4, P83105) | pKd (NHERF3_4, Q5T2W1) | pKd (Inadl_8, Q8NI35) | pKd (IL16_3, Q14005) | pKd (GRIP1_7, Q9Y3R0) | pKd (TX1BP3, O14907) | pKd (PCLO, Q9Y6V0) | pKd (Inadl_5, Q8NI35) | pKd (MAGI1_2, Q96QZ7) | pKd (LNX1_3, Q8TBB1) | pKd (MPDZ_10, O75970) | further results
GVHSNDHSVV [LPAR1, Q92633] | below the threshold | below the threshold | below the threshold | below the threshold | below the threshold | below the threshold | below the threshold | below the threshold | 3.54 | below the threshold | below the threshold | 3.62 | below the threshold | below the threshold | below the threshold | below the threshold | below the threshold | below the threshold | below the threshold | below the threshold | pKd (LNX2_2, Q8N448): 4.26; pKd (MPP2, Q14168): below the threshold; pKd (RADIL, Q96JH8): 3.62; pKd (APBA2_2, Q99767): below the threshold; pKd (TJP1_2, Q07157): below the threshold; pKd (Inadl_9, Q8NI35): below the threshold
YAEKRMLTEV [KCNA6, P17658] | below the threshold | below the threshold | below the threshold | below the threshold | below the threshold | below the threshold | 4.62 | below the threshold | 4.91 | 4.38 | below the threshold | below the threshold | below the threshold | below the threshold | 4.29 | below the threshold | below the threshold | 4.54 | below the threshold | below the threshold | pKd (LNX2_2, Q8N448): 4.04; pKd (MPP2, Q14168): below the threshold; pKd (RADIL, Q96JH8): 3.97; pKd (APBA2_2, Q99767): below the threshold; pKd (TJP1_2, Q07157): below the threshold; pKd (Inadl_9, Q8NI35): below the threshold
DYSNLRETDI [ADRA1D, P25100] | below the threshold | below the threshold | below the threshold | below the threshold | below the threshold | below the threshold | below the threshold | below the threshold | 4.03 | 3.75 | below the threshold | 3.56 | below the threshold | below the threshold | 4.51 | below the threshold | below the threshold | below the threshold | below the threshold | below the threshold | pKd (LNX2_2, Q8N448): below the threshold; pKd (MPP2, Q14168): below the threshold; pKd (RADIL, Q96JH8): below the threshold; pKd (APBA2_2, Q99767): below the threshold; pKd (TJP1_2, Q07157): below the threshold; pKd (Inadl_9, Q8NI35): below the threshold
